Measurements reported in paper PMC12022045 (Nature Communications, 2025).

T1: TAFH (human, UniProt O00268 582-678)
T1 sequence (looked up): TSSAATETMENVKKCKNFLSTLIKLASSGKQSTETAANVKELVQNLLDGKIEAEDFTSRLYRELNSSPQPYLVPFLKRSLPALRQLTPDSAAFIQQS

T2: MED15-ABD3 (human, UniProt Q96RN5-2 453-561)
T2 sequence (looked up): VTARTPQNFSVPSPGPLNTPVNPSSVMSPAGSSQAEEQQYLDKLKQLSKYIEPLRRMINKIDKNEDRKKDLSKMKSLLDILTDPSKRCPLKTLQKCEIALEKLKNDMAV


How the values were obtained:
[1] = biological target: T1, TAFH; test: NMR titration
[2] = biological target: T2, MED15-ABD3; test: NMR titration
[3] = biological target: T2, MED15-ABD3; test: SPR

binding result [1]	binding result [2]	Kd [3] [nM]	Binder
binds	binds	–	FLTWL [FLTWL pentapeptide]
binds	–	–	SDILNDMESVLAATK [α-helix-based peptide SDILNDMESVLAATK]
–	–	160 ± 54.3	YAP-TAD (domain or fragment, human, UniProt P46937 450-504, looked up) GTNVDLGTLEGDGMNIEGEELMPSLQEALSSDILNDMESVLAATKLDKESFLTWL
